Measurements: IntAct's records for PubMed 38057552

B1: Sodium/glucose cotransporter 2 (Homo sapiens), P31639 (parent)
chain: MEEHTEAGSAPEMGAQKALIDNPADILVIAAYFLLVIGVGLWSMCRTNRGTVGGYFLAGRSMVWWPVGASLFASNIGSGHFVGLAGTGAASGLAVAGFEWNALFVVLLLGWLFAPVYLTAGVITMPQYLRKRFGGRRIRLYLSVLSLFLYIFTKISVDMFSGAVFIQQALGWNIYASVIALLGITMIYTVTGGLAALMYTDTVQTFVILGGACILMGYAFHEVGGYSGLFDKYLGAATSLTVSEDPAVGNISSFCYRPRPDSYHLLRHPVTGDLPWPALLLGLTIVSGWYWCSDQVIVQRCLAGKSLTHIKAGCILCGYLKLTPMFLMVMPGMISRILYPDEVACVVPEVCRRVCGTEVGCSNIAYPRLVVKLMPNGLRGLMLAVMLAALMSSLASIFNSSSTLFTMDIYTRLRPRAGDRELLLVGRLWVVFIVVVSVAWLPVVQAAQGGQLFDYIQAVSSYLAPPVSAVFVLALFVPRVNEQGAFWGLIGGLLMGLARLIPEFSFGSGSCVQPSACPAFLCGVHYLYFAIVLFFCSGLLTLTVSLCTAPIPRKHLHRLVFSLRHSKEEREDLDADEQQGSSLPVQNGCPESAMEMNEPQAPAPSLFRQCLLWFCGMSRGGVGSPPPLTQEEAAAAARRLEDISEDPSWARVVNLNALLMMAVAVFLWGFYA
partner: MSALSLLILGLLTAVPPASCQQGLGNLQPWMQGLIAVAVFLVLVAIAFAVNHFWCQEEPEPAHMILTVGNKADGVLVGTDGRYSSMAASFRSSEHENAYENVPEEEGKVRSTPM

Variants of: B1
Conditions: with pdz1i_human PDZK1IP1, Q13113

Effect of a mutation on the interaction, with no effect:
D201A
F98A
S74A
